We go through four molecules from patent US20170226193A1 (UNIVERSITY OF MASSACHUSETTS, published 2017).

Test [1] deals with T1, OspA (a.a. 18-273) mutant with D249A and S250A point mutations, N-terminal His tag (Borrelia burgdorferi, UniProt P0CL66 18-273).
T1 construct: not shown: N-terminal His tag of the pET45 vector
Kind of test: ELISA on plate-coated OspA protein form [panel B].

For test [2], the target named is T2, a.a. 106-273.
T2 construct: not shown: N-terminal His tag and vector-derived linker of pET45-His
T2 chain: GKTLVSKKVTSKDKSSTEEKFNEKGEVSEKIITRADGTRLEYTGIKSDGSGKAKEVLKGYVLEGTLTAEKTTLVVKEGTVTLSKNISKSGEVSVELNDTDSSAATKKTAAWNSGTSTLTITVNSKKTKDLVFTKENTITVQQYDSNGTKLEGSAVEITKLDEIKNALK
Kind of test: ELISA on plate-coated OspA protein form [panel B].

Test [3] concerns the target T3, a.a. 18-177.
T3 construct: not shown: N-terminal His tag and vector-derived linker of pET45-His
T3 chain: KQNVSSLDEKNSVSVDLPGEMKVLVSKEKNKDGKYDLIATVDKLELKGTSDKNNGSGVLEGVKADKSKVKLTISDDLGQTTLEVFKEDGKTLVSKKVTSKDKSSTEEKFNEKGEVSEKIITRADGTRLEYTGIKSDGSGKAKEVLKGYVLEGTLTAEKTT
Kind of test: ELISA on plate-coated OspA protein form [panel B].

Test [4] deals with T4, a.a. 142-273.
T4 construct: not shown: N-terminal His tag and vector-derived linker of pET45-His
T4 chain: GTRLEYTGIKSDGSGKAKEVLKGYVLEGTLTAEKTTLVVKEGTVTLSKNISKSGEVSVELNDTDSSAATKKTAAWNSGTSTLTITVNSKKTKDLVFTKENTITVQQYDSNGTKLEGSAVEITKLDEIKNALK
Briefly: ELISA on plate-coated OspA protein form [panel B].

Test [5] concerns the target T5, a.a. 178-273.
T5 construct: not shown: N-terminal His tag and vector-derived linker of pET45-His
T5 chain: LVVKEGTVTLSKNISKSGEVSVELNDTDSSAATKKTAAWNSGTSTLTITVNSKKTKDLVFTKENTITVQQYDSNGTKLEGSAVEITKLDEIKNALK
Briefly: ELISA on plate-coated OspA protein form [panel B].

Test [6] has as its target T6, a.a.18-141.
T6 construct: not shown: N-terminal His tag and vector-derived linker of pET45-His
T6 chain: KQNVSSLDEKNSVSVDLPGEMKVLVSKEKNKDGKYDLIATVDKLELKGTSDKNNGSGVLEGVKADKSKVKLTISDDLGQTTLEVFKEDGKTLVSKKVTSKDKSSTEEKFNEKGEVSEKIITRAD
Kind of test: ELISA on plate-coated OspA protein form [panel B].

Test [7] addresses T7, a.a. 71-273.
T7 construct: not shown: N-terminal His tag and vector-derived linker of pET45-His
T7 chain: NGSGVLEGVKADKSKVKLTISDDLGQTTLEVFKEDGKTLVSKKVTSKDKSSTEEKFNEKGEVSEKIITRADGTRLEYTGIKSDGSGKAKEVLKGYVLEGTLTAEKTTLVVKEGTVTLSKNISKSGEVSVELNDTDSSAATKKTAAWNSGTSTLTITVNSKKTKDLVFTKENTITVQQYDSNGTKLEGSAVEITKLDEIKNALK
Kind of test: ELISA on plate-coated OspA protein form [panel B].

For test [8], the target named is native OspA on Borrelia garinii PBi spirochetes (Borrelia garinii PBi, UniProt Q09089 17-273). Kind of test: cell-based or functional assay.
Test [9] deals with T8, native OspA on Borrelia afzelii BO23 spirochetes (Borrelia afzelii BO23, UniProt P0A3N7 17-273).
T8 sequence: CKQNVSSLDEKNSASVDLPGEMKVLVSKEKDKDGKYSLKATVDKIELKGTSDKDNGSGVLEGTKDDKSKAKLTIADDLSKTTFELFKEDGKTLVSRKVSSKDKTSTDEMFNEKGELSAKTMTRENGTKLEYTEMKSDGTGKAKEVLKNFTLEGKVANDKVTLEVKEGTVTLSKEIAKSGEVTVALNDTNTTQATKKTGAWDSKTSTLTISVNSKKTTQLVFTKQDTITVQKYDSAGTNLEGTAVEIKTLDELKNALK
Kind of test: cell-based or functional assay.

The target in test [10] is native OspA on Borrelia burgdorferi B31 spirochetes (Borrelia burgdorferi B31, UniProt P0CL66 17-273). Kind of test: cell-based or functional assay.
Test [11] addresses T9, recombinant OspA of Borrelia afzelii ACA-1 (OspA-afzelii) (Borrelia afzelii ACA-1, UniProt P0A3N7 17-273).
T9 construct: also called OspA B. afzelii; not shown: N-terminal GST tag (pGEX-4T-3) or His tag (pET45-His)
T9 sequence: T8 sequence
Kind of test: SPR, Biacore 3000.

The target of test [12] is T10, recombinant OspA of Borrelia burgdorferi B31 (OspA-burgdorferi) (Borrelia burgdorferi B31, UniProt P0CL66 17-273).
T10 construct: also called OspA B. burgdorferi; not shown: N-terminal GST tag (pGEX-4T-3) or His tag (pET45-His)
Kind of test: SPR, Biacore 3000.

Test [13] addresses T11, recombinant OspA of Borrelia garinii PBi (OspA-garinii) (Borrelia garinii PBi, UniProt Q09089 17-273).
T11 construct: also called OspA B. garinii; not shown: N-terminal GST tag (pGEX-4T-3) or His tag (pET45-His)
Kind of test: SPR, Biacore 3000.

Test [14] has as its target T9, recombinant OspA of Borrelia afzelii …. Kind of test: SPR, Biacore 3000; antibody amine-coupled on CM5 chip, OspA in solution.
Procedure: (§1) Biacore 3000 was used to determine the affinity of HuMabs to OspA-burgdorferi, OspA-garinii and OspA-afzelii. HuMabs was captured on the surface of a Biacore chip (GE healthcare) via amine coupling (Sensor Chip CM5). The captured Mabs were exposed to various concentrations of OspA in solution. The Kₒₙ and Koff for an affinity (KD) were calculated by BIAevaluation software.
Test [15] has as its target T10, recombinant OspA of Borrelia …. The test is described as above.
Procedure: as §1
In test [16] the target is T11, recombinant OspA of Borrelia garinii …. The description is as above.
Procedure: as §1

Some results are limits rather than exact numbers.

T11 sequence (Q09089 17-273 limits assumed): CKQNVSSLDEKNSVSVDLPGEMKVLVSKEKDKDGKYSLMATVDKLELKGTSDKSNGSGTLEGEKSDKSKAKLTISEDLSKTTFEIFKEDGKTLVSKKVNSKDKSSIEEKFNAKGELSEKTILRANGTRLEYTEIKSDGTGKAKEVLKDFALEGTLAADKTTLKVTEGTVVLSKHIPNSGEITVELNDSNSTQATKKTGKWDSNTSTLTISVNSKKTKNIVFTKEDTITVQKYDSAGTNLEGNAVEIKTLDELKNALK
Chain of native OspA on Borrelia garinii PBi spirochetes (Q09089 17-273 limits assumed): as above

B1: anti-OspA antibody 221-7 (antibody, V domains shown)
VH: EVQLVQSGSEVKKPGESLKISCQVSGYSFTSYWIGWVRQMPGKGLERVGFIYPGDSDTRYSPSFQGQVTISADKSISTAYLQWSSLKASDTAMYYCARGILRYFDWFLDYWGQGTLVTVSS
VL: AIQLTQSPSSLSASVGDRVTITCRASQGISSGSAWYQQKPGKAPKLLIYDVSSLESGVPSRFSGSGSGTEFTLTISSLQPEDFATYYCQQFNSYLLTFGGGTKVEIK
notes: also called HuMab 221-7
For the molecule B1, the binding result is reported as “binds” in test [1]; “no binding” in test [2]; “binds” in [3]; “no binding” in test [4]; “no binding” in [5]; “binds” in test [6]. In addition, the binding result in test [7] is recorded as “binds”. In addition, the “Borreliacidal activity (EC50 (nM))” value in [8] is 6.6 nM; in test [9], 0.9 nM; in test [10], less than 0.4 nM. Besides, the Kd is not above 36 nM in [11]; not above 22 nM in test [12]; not above 36 nM in test [13]; 7.8 nM in test [14]; 0.66 nM in test [15]; 1.3 nM in test [16].

B2: anti-OspA antibody 319-44 (antibody, V domains shown)
VH: EMQLVQSGAEVKKPGESLKISCKGSGYIFATYWIGWVRQMPGKGLEWMGIIYPNDSDTRYSPSFQGQVTISADKSINTAYLQWSSLKASDTAMYYCARTRWYFDLWGRGTLVTVSS
VL: not shown
notes: also called HuMab 319-44; 319-44 wild-type antibody
For the molecule B2, the binding result in [1] was “no binding”; in test [2], “binds”; in test [3], “no binding”; in test [4], “binds”; in test [5], “binds”; in test [6], “no binding”. Besides, in test [7], the binding result is given as “binds”. Moreover, the “Borreliacidal activity (EC50 (nM))” value in [9] was 4 nM; in [10], less than 0.4 nM. The Kd turned out to be 1200 nM in [14], 328 nM in test [15] and 674 nM in [16].

B3: anti-OspA antibody 857-2 (antibody, V domains shown)
VH: EVQLVQSGEEVKKPGESLKISCKGSGYKFSSYWIGWVRQMPGKGLEWMGIIFPGDSDKRYSPSFQGQVTISADKSISTVYLQWSSLKASDTAMYYCARHITTHTYRGFFDFWGQGTLVTVSS
VL: AIQLTQSPSSLSASVGDRVTITCRASQDISSALAWYQQKPGKAPKLLIYDVSSLESGVPSRFSGSGSGTDFTLTISSLQPEDFATYYCQQFNGYPHRLTFGGGTKVEIK
notes: also called HuMab 857-2
Consider B3, for which the binding result is “binds” in [1]; “binds” in test [2]; “binds” in test [3]; “no binding” in test [4]; “no binding” in [5]; “binds” in test [6]. Moreover, the binding result in test [7] is reported as “binds”. Further, the entries for the “Borreliacidal activity (EC50 (nM))” value in [8], in test [9] and in test [10] were 41.6 nM, 2 nM and 2 nM, respectively. For the same molecule, the Kd was not above 36 nM in test [11]; not above 22 nM in test [12]; not above 36 nM in [13]; 1.6 nM in test [14]; 0.65 nM in test [15]; 1 nM in test [16].

B4: anti-OspA antibody 212-55 (antibody, V domains shown)
VH: EVQLVESGGGLVQPGGSLRLSCAASGFTFRNYWMDWVRQAPGKGLEWVANIKQDGSVKYYVDSVEGRFTISRDNAKNSLFLQMNSLRAEDTAVYYCARDGYSGYDSVGFDIWGQGTMVTVSS
VL: EIVLTQSPGTLSLSPGERATLSCRASQSVSSSYLAWYQQKPGQAPRLLISDTSSRATGIPDRFSGSGSGTDFTLTISRLEPEDFAVYYCQQYGSSPYTFGQGTKLEIK
notes: also called HuMab 212-55
With B4, the binding result in test [4] is “binds”; in [5], “no binding”. Also, the Kd in test [16] amounted to 480 nM.
